We go through one substance from paper PMC4004960.

The target in this assay is BRD4-BD1 (recombinant, NMR and fluorescence anisotropy) (UniProt O60885). Description: fluorescence polarisation.

Usually Ki stands for the equilibrium dissociation constant of an inhibitor or competing ligand from its target. “Twist-K73ac/K76ac peptide (residues 68-79) (from UniProt Q15672 68-79)”: the inhibitory constant (Ki) is above 3000 µM.
